Nlgn1 levels in the co-immunoprecipitates as percentage of total Nlgn1 in the initial lysates data for 1 substance are collected here from article PMC11909895.

In assay [1] the target is beta-Nrxn1ΔC, C-terminal truncated mutant beta-Nrxn1 (-AS4). The assay is described as follows: co-IP; HA antibody (clone 3F10) and Protein-G Sepharose from striatum lysates of adult control and beta-Nrxn1ΔC mice; lysis buffer 20 mM Tris-HCl pH 7.5, 100 mM NaCl, 5 mM MgCl2, 5 mM CaCl2, 1% Triton X-100; blots for Nlgn1, Nlgn2, Nlgn3, LRRTM2.
Assay [2] has the same target. The assay is described as follows: co-IP; HA antibody (clone 3F10) and Protein-G Sepharose from cortex lysates of adult control and beta-Nrxn1ΔC mice (untreated, or DOX 14 days then 30 days re-expression); lysis buffer 20 mM Tris-HCl pH 7.5, 100 mM NaCl, 5 mM MgCl2, 5 mM CaCl2, 1% Triton X-100; blots for Nlgn1, Nlgn2, Nlgn3, LRRTM2.

For “Nlgn1 (neuroligin-1) (from UniProt Q99K10 46-843) (natural protein)”, the Nlgn1 levels in the co-immunoprecipitates as percentage of total Nlgn1 in the initial lysates in assay [1] came out at 1.74%; in assay [2], 5.01%.
